In publication PMC10786891, “Massively parallel profiling of RNA-targeting CRISPR-Cas13d”:
Where a chain is given by its changes, count along the chain named. Names and notes keep the numbering of the source.

T1: EsCas13d, nuclease-dead (Eubacterium siraeum, UniProt B0MS50, R295A;H300A;R849A;H854A)
T1 sequence: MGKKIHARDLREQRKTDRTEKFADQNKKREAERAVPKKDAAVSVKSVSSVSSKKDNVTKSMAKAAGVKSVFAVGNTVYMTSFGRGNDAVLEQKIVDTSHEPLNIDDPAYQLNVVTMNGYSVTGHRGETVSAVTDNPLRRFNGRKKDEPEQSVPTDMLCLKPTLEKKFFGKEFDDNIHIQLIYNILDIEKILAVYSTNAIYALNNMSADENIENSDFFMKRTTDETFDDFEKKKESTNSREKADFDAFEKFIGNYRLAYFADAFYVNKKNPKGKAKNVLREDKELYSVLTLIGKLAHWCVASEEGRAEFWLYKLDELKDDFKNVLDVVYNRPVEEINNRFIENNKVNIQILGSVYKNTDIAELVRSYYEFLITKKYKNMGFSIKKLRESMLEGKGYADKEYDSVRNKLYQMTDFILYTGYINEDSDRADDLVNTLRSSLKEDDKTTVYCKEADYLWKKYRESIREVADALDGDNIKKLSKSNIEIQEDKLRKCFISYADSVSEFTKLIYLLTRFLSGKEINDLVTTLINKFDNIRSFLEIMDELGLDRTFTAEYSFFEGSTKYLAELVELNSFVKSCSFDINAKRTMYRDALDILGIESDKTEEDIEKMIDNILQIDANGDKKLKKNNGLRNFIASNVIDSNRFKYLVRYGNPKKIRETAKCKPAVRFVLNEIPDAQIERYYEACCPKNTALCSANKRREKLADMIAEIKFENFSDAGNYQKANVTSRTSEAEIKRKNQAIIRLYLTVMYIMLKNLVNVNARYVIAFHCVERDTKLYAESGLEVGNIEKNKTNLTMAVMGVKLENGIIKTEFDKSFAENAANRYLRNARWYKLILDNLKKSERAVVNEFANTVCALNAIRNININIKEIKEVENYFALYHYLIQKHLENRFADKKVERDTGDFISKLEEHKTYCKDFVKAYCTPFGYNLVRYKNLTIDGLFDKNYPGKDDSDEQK

B1: target 1 MT 5'PFS CUA 3'PFS UAC (mixed)
RNA 1: CACCCGUGCAAAAAUGCAGGGGUCUAAAACUGAGCGGAUAACCUCUCUAUGG
RNA 2: GGGAAUGGAUCCACAUCUACGAAUUCCUACCAUAGAGAGGUUAUCCGCUCAUACAGAUCGGAAGAGCACACGU
B2: target 1 MT 5'PFS UUA 3'PFS CGC (mixed)
RNA 1: B1 RNA 1
RNA 2: B1 RNA 2 with C27U, U52C, A53G
B3: target 1 MT 5'PFS ACA 3'PFS AUC (mixed)
RNA 1: B1 RNA 1
RNA 2: B1 RNA 2 with C27A, U28C, U52A, A53U
B4: target 1 MT 5'PFS GUG 3'PFS AGA (mixed)
RNA 1: B1 RNA 1
RNA 2: B1 RNA 2 with C27G, A29G, U52A, A53G, C54A
B5: target 1 MT 5'PFS AAA 3'PFS ACC (mixed)
RNA 1: B1 RNA 1
RNA 2: B1 RNA 2 with C27A, U28A, U52A, A53C
B6: target 1 MT 5'PFS UCA 3'PFS CCC (mixed)
RNA 1: B1 RNA 1
RNA 2: B1 RNA 2 with C27U, U28C, U52C, A53C
B7: target 1 MT 5'PFS CAA 3'PFS CUC (mixed)
RNA 1: B1 RNA 1
RNA 2: B1 RNA 2 with U28A, U52C, A53U
B8: target 1 MT 5'PFS CAA 3'PFS CUG (mixed)
RNA 1: B1 RNA 1
RNA 2: B1 RNA 2 with U28A, U52C, A53U, C54G
B9: target 1 MT 5'PFS UUA 3'PFS AUA (mixed)
RNA 1: B1 RNA 1
RNA 2: B1 RNA 2 with C27U, U52A, A53U, C54A
B10: target 1 MT 5'PFS ACA 3'PFS AUG (mixed)
RNA 1: B1 RNA 1
RNA 2: B1 RNA 2 with C27A, U28C, U52A, A53U, C54G
B11: target 1 U3C,C4G (mixed)
RNA 1: B1 RNA 1
RNA 2: B1 RNA 2 with C27G, C48G, U49C, U52C, A53C, C54G
B12: target 1 MT 5'PFS CUA 3'PFS UAA (mixed)
RNA 1: B1 RNA 1
RNA 2: B1 RNA 2 with C54A
B13: target 1 MT 5'PFS GCA 3'PFS CAA (mixed)
RNA 1: B1 RNA 1
RNA 2: B1 RNA 2 with C27G, U28C, U52C, C54A
B14: target 1 MT 5'PFS GUA 3'PFS UCU (mixed)
RNA 1: B1 RNA 1
RNA 2: B1 RNA 2 with C27G, A53C, C54U
B15: target 1 MT 5'PFS CCU 3'PFS AGA (mixed)
RNA 1: B1 RNA 1
RNA 2: B1 RNA 2 with U28C, A29U, U52A, A53G, C54A
B16: target 1 MT 5'PFS GCA 3'PFS CAG (mixed)
RNA 1: B1 RNA 1
RNA 2: B1 RNA 2 with C27G, U28C, U52C, C54G
B17: target 1 MT 5'PFS CUA 3'PFS AGU (mixed)
RNA 1: B1 RNA 1
RNA 2: B1 RNA 2 with U52A, A53G, C54U
B18: target 1 MT 5'PFS UUA 3'PFS AUC (mixed)
RNA 1: B1 RNA 1
RNA 2: B1 RNA 2 with C27U, U52A, A53U
B19: target 1 MT 5'PFS CAG 3'PFS ACA (mixed)
RNA 1: B1 RNA 1
RNA 2: B1 RNA 2 with U28A, A29G, U52A, A53C, C54A
B20: target 1 MT 5'PFS CUA 3'PFS UAG (mixed)
RNA 1: B1 RNA 1
RNA 2: B1 RNA 2 with C54G
B21: target 1 MT 5'PFS AGG 3'PFS ACG (mixed)
RNA 1: B1 RNA 1
RNA 2: B1 RNA 2 with C27A, U28G, A29G, U52A, A53C, C54G
B22: target 1 MT 5'PFS CUA 3'PFS AGG (mixed)
RNA 1: B1 RNA 1
RNA 2: B1 RNA 2 with U52A, A53G, C54G
B23: target 1 MT 5'PFS GCA 3'PFS UCA (mixed)
RNA 1: B1 RNA 1
RNA 2: B1 RNA 2 with C27G, U28C, A53C, C54A
B24: target 1 MT 5'PFS UCA 3'PFS CCG (mixed)
RNA 1: B1 RNA 1
RNA 2: B1 RNA 2 with C27U, U28C, U52C, A53C, C54G
B25: target 1 MT 5'PFS ACA 3'PFS AUA (mixed)
RNA 1: B1 RNA 1
RNA 2: B1 RNA 2 with C27A, U28C, U52A, A53U, C54A
B26: target 1 MT 5'PFS UUA 3'PFS AUU (mixed)
RNA 1: B1 RNA 1
RNA 2: B1 RNA 2 with C27U, U52A, A53U, C54U
B27: target 1 MT 5'PFS GUA 3'PFS UCA (mixed)
RNA 1: B1 RNA 1
RNA 2: B1 RNA 2 with C27G, A53C, C54A
B28: target 1 insG 3' of 18,insG 3' of 10 (mixed)
RNA 1: B1 RNA 1
RNA 2: GGGAAUGGAUCCACAUCUACGAAUUCGUACCAUAGGAGAGGUUGAUCCGCUCACCGAGAUCGGAAGAGCACACGU
B29: target 1 MT 5'PFS GCA 3'PFS UCG (mixed)
RNA 1: B1 RNA 1
RNA 2: B1 RNA 2 with C27G, U28C, A53C, C54G
B30: target 1 MT 5'PFS CAG 3'PFS ACG (mixed)
RNA 1: B1 RNA 1
RNA 2: B1 RNA 2 with U28A, A29G, U52A, A53C, C54G
B31: target 1 MT 5'PFS UUA 3'PFS AUG (mixed)
RNA 1: B1 RNA 1
RNA 2: B1 RNA 2 with C27U, U52A, A53U, C54G
B32: target 1 insA 3' of 10,insG 3' of 3 (mixed)
RNA 1: B1 RNA 1
RNA 2: GGGAAUGGAUCCACAUCUACGAAUUCGUACCAUAGAGAGGUUAAUCCGCUGCACCGAGAUCGGAAGAGCACACGU
B33: target 1 MT 5'PFS AGG 3'PFS ACU (mixed)
RNA 1: B1 RNA 1
RNA 2: B1 RNA 2 with C27A, U28G, A29G, U52A, A53C, C54U
B34: target 1 MT 5'PFS GCA 3'PFS CAU (mixed)
RNA 1: B1 RNA 1
RNA 2: B1 RNA 2 with C27G, U28C, U52C, C54U
B35: target 1 C7A,G12A (mixed)
RNA 1: B1 RNA 1
RNA 2: B1 RNA 2 with C27G, G40A, C45A, U52C, A53C, C54G
B36: target 1 MT 5'PFS CAG 3'PFS ACC (mixed)
RNA 1: B1 RNA 1
RNA 2: B1 RNA 2 with U28A, A29G, U52A, A53C
B37: target 1 MT 5'PFS GUA 3'PFS UCC (mixed)
RNA 1: B1 RNA 1
RNA 2: B1 RNA 2 with C27G, A53C
B38: target 1 MT 5'PFS GUA 3'PFS UCG (mixed)
RNA 1: B1 RNA 1
RNA 2: B1 RNA 2 with C27G, A53C, C54G
B39: target 1 MT 5'PFS AAA 3'PFS ACA (mixed)
RNA 1: B1 RNA 1
RNA 2: B1 RNA 2 with C27A, U28A, U52A, A53C, C54A
B40: target 1 MT 5'PFS AGG 3'PFS ACC (mixed)
RNA 1: B1 RNA 1
RNA 2: B1 RNA 2 with C27A, U28G, A29G, U52A, A53C

Target: T1, EsCas13d, nuclease-dead
Test: crRNA (strand 1, pre-loaded); Mg2+; 40 mM Tris-HCl pH 7.5, 150 mM NaCl, 6 mM MgCl2, 1 mM DTT, 0.1% Tween-20, 0.2 mg/ml BSA; 25 C; 10 min per concentration, then washed
Conditions: tags: His6-TwinStrep-SUMO cleaved; N-terminal SNAP kept (SNAP-Surface 488); label: 3' end held by stalled T7 RNA polymerase

In order of falling Kd:
1. B9  77 ± 25 nM
2. B6  ~69 nM
3. B31  64.5 ± 23 nM
4. B28  61 ± 15 nM
5. B3  56 ± 25.5 nM
6. B40  46.5 ± 22 nM
7. B5  42 ± 13.5 nM
8. B33  42 ± 12 nM
9. B21  41 ± 10 nM
10. B22  41 ± 19 nM
11. B10  39.5 ± 14.5 nM
12. B16  ~36.5 nM
13. B34  35 ± 11 nM
14. B13  ~32.5 nM
15. B15  31.5 ± 14.5 nM
16. B19  31 ± 15.5 nM
17. B39  29.5 ± 14 nM
18. B7  ~25 nM
19. B24  ~25 nM
20. B36  24 ± 11.5 nM
21. B18  20.5 ± 5 nM
22. B30  19.5 ± 5.15 nM
23. B2  18 ± 7 nM
24. B4  15.9 ± 1 nM
25. B8  14.5 ± 5 nM
26. B29  13.7 ± 2.4 nM
27. B26  13.2 ± 2.1 nM
28. B27  12.3 ± 0.95 nM
29. B17  12.2 ± 3.65 nM
30. B25  12.2 ± 3.9 nM
31. B23  11.8 ± 2.9 nM
32. B11  11.4 ± 0.6 nM
33. B35  9.6 ± 0.8 nM
34. B38  8.56 ± 0.55 nM
35. B14  8.3 ± 0.95 nM
36. B37  7.33 ± 0.61 nM
37. B32  7.18 ± 0.25 nM
38. B12  6 ± 1.3 nM
39. B20  4.9 ± 0.9 nM
40. B1  ~3.9 nM
